Test results reported in paper PMC2217592.

Columns and labels:
[1] = target: TIRC7 (human (endogenous in PBL)) (UniProt Q13488)
[2] = target: TIRC7 (human (endogenous in PBL)) (UniProt Q13488); remark: listed apart in the source

Sequence of UniProt Q13488 (Q13488 217-830): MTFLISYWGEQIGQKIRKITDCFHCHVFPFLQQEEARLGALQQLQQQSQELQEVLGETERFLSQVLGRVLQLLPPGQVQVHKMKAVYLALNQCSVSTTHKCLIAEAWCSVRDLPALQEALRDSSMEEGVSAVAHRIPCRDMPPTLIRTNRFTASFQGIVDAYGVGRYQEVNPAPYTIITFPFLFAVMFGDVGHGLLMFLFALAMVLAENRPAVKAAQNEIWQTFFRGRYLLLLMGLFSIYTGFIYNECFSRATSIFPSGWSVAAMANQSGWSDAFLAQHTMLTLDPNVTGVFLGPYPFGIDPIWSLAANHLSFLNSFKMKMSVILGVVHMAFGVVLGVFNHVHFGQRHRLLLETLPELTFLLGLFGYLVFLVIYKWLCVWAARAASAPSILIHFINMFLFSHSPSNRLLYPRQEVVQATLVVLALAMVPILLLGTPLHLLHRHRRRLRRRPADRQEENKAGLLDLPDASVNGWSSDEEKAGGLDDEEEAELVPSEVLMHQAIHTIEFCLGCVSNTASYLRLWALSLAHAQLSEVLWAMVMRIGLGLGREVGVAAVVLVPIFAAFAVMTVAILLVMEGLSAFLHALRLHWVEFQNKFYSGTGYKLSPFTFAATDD

**Q.** “soluble HLA-DR alpha 2 fusion protein (entire human HLA-DR alpha 2 domain linked to an IgG1 Fc protein) (Fc fusion)” was tested. Which apoptosis (Annexin V) of human CD4+ cells stimulated 72 h with anti-CD3/CD28, sHLA-DRα2 50 µg/ml [1] did it give?
**A.** Its apoptosis (Annexin V) of human CD4+ cells stimulated 72 h with anti-CD3/CD28, sHLA-DRα2 50 µg/ml is 51%.

**Q.** And the apoptosis (Annexin V) of human CD8+ cells stimulated 72 h with anti-CD3/CD28, sHLA-DRα2 50 µg/ml [1]?
**A.** Its apoptosis (Annexin V) of human CD8+ cells stimulated 72 h with anti-CD3/CD28, sHLA-DRα2 50 µg/ml is 54%.

**Q.** And the cells in G0/G1 cell cycle phase, human PBL activated with anti-CD3/CD28 48 h with sHLA-DRα2 50 µg/ml (propidium iodine, flow cytometry) [2]?
**A.** Its cells in G0/G1 cell cycle phase, human PBL activated with anti-CD3/CD28 48 h with sHLA-DRα2 50 µg/ml (propidium iodine, flow cytometry) is 89%.

**Q.** And the subdiploid (apoptotic) cells 72 h after incubation of activated human PBL with sHLA-DRα2 [2]?
**A.** The subdiploid (apoptotic) cells 72 h after incubation of activated human PBL with sHLA-DRα2 was 46.4%.
